Target: WT1 peptide … presented by HLA-A0201 (human;)
Test: 125I-labeled antibody saturation cell binding; JMN cells

Kd: 0.2 nM
B1: ESK1 wildtype IgG1 (antibody, V domains shown)
VH: QMQLVQSGAEVKEPGESLRISCKGSGYSFTNFWISWVRQMPGKGLEWMGRVDPGYSYSTYSPSFQGHVTISADKSTSTAYLQWNSLKASDTAMYYCARVQYSGYYDWFDPWGQGTLVTVSS
VL: not shown

Reference: patent publication US20160369006A1 (published 2016)
